Molecular target: T1, wild-type Fc (wtFc), recombinant Fc fragment of human IgG1 (human)
T1 construct: human IgG1 heavy chain constant region, Fc fragment, residues 223-447; also called IgG Fc
Experiment: SPR; BIAcore 2000; wtFc amine-coupled to a CM5 chip (440 RU); CgE injected, three-fold dilutions from 30 μM to 5 nM; pH 8 (50 mM HEPES pH 8.0, 150 mM NaCl, 3 mM EDTA, 0.005% P-20); equilibrium response fitted to a single-site model
Details: both partners purified

B1: C-terminal domain of the gE ectodomain (CgE), HSV-1 gE residues 213-390 (domain or fragment)
chain: APEVSHVRGVTVRMETPEAILFSPGETFSTNVSIHAIAHDDQTYSMDVVWLRFDVPTSCAEMRIYESCLYHPQLPECLSPADAPCAASTWTSRLAVRSYAGCSRTNPPPRCSAEAHMEPVPGLAWQAASVNLEFRDASPQHSGLYLCVVYVNDHIHAWGHITISTAAQYRNAVVEQPL
modifications: secreted from High 5 insect cells; disulfides Cys271-Cys297, Cys280-Cys289 and Cys314-Cys323 (gE numbering = entity position + 211); C-terminal Factor Xa site and 6xHis left out
Binder B1 has a Kd of about 7 µM.

Reference: PMC1450327, “Crystal Structure of the HSV-1 Fc Receptor Bound to Fc Reveals a Mechanism for Antibody Bipolar Bridging” (PLoS Biology, 2006)
